# Experimental data as given in the DeepSol protein solubility set.
# Experiment: soluble on expression in E. coli; label from the status in PepcDB or PDB records
row,Sequence,soluble on expression in E. coli
1,MQIVSVDIGSTWTKAALFTREGDALTLVNHVLTPTTTHHLAKGFFSSLNQVLNVDNALPLLNSGEVALKYSSSAKGGLAVAAMGLVPSITLETAKVTAHSAGAKIAQYYAYKLNRRDIQALEETQPDILLFTGGTDGGEESYGLNNARVLAESKLDCAIIYAGNRDIQDEVQEILGHKDLTIVDNVLPDLDHPNPVAARQAICDIFLKRIVKGKGLDVIVDKTGEEPMPTPWTVFELVKAISNVDHSWKEFMLIDMGGATTDVYSACANTLSPDTVLHGVPEPFVKRTVEGDLGMRVSAVVVGESAKELVNVNFAQQPAQLDAFYHYLRHLVAHPDYLPANAEEKYFDTVLAGLCVGYATERHAGTKKEVCTCVGNVDLQMGRDLTTVRKVVGSGGWLSRASQFDMHHWLKYRELNDDGKRILLPTEFEYYRDSRGLLPLLANVARVDPLAAARTSIQCLTL,not soluble
2,MQKEPRKVREFRRREQEILDTALKLFLEQGEDSVTVEMIADAVGIGKGTIYKHFKSKAEIYLRLMLDYERDLNELLHSADVDKDKEALSRAYFEFRMRDPQRYRLFDRLEEKVVKGNQVPELVEELHKIRASNFEHLTLLIKGRITEGKLEDVPPYYHYCAAWALVHGAVALYHSPFWSNVLEDQEGFFNFLMDIGVRMGNKRKRDTDVPAEPKPDPDV,not soluble
3,MQKSVLITGCSSGIGLDSALELKRQGFQILAGCRKPDDVARMNSMGFTGVLIDLDSPESVDRAADEVIALTDNRLYGIFNNAGYGVYGPLSTISREQMEQQFSSNFFGAHQLTMRLLPAMLPHGEGRIVMTSSVMGLISTPGRGAYAASKYALEAWSDALRMELRHTGIKVSLIEPGPIRTRFTDNVNQTQRDKPVENPGIAARFTRDPDAVVAKVRHAFASDKPRLRYPVTLVTWAVMALKRILPGRMLDKILQS,not soluble
4,MQLDPGRGYDLIGDVHGCAHTLDRLLDLLGYRLQGGVWRHPRRQALFLGDIVDRGPRIREALHRVHAMVDAGEALCIMGNHEFNALGWSTPAAPGSGRQYVREHTPRHARLIKETLEQFEGHDADWRDFLGWFQQLPLFLDAGRFRMVHACWDGELIATLRRQFPDGRISEAFLQESAEPGSFADLACNRLLRGTDMRLPHGATLTSSDGYTRAFFRTKFWVEDEAPRTYGDIVFQPDALPEAIAREPLSEEQKSSLLTYGADEPLLFVGHYWRRGTPAPIRPNLACLDYSAVMYGKLAAYRLDEETRLDRHKFVWVEVKRPEADE,soluble
5,MQLQKLVNMFGGDLTRRYGQKVHKLTLHGGFSCPNRDGTIGRGGCTFCNVASFADEAQQHRSIAEQLAHQANLVNRAKRYLAYFQAYTSTFAEVQVLRSMYQQAVSQANIVGLCVGTRPDCVPDAVLDLLCEYKDQGYEVWLELGLQTAHDKTLHRINRGHDFACYQRTTQLARQRGLKVCSHLIVGLPGEGQAECLQTLERVVETGVDGIKLHPLHIVKGSIMAKAWEAGRLNGIELEDYTLTAGEMIRHTPPEVIYHRISASARRPTLLAPLWCENRWTGMVELDRYLNEHGVQGSALGRPWLPPTE,soluble
6,MQLSHRPAETGDLETVAGFPQDRDELFYCYPKAIWPFSVAQLAAAIAERRGSTVAVHDGQVLGFANFYQWQHGDFCALGNMMVAPAARGLGVARYLIGVMENLAREQYKARLMKISCFNANAAGLLLYTQLGYQPRAIAERHDPDGRRVALIQMDKPLEP,soluble
7,MQLSKALSLRRVLNSGFHPFQVIPKPDVWMKRERLNRFTAWQYASERSTVKGAYRKEDKIFAYLNMQRQDERNLEKFHAEERVRTALEEHDMEYSKFKSILSQSHILLDNICLSQLAIYEPRSFRSLVAFAKELARQEGMNVIPDDAEFSYDVHVDNKSVLRKPLPRAVEYTRGASENHTNKPRKLREDEY,not soluble
8,MQMIHKEGWIEVICGSMFSGKSEELIRRVRRATYGRLKVQVFKPAIDNRYSEQEVVSHNGNKVCAIPVERAMSILEQWSEDTDIVAIDEVQFFDEDVIGVVDYLADHGVRVICAGLDQDFRGEPFEPTRTLMAMAEYVTKLQAICPVCGSPASRTQRLIDGKPASYHDPIILVGAAEAYEPRCRHCHQVTNKPSKLPETASSGELEHHHHHH,soluble
9,MQNRLTIKDIARLSGVGKSTVSRVLNNESGVSQLTRERVEAVMNQHGFSPSRSARAMRGQSDKVVAIIVTRLDSLSENLAVQTMLPAFYEQGYDPIMMESQFSPQLVAEHLGVLKRRNIDGVVLFGFTGITEEMLAHWQSSLVLLARDAKGFASVCYDDEGAIKILMQRLYDQGHRNISYLGVPHSDVTTGKRRHEAYLAFCKAHKLHPVAALPGLAMKQGYENVAKVITPETTALLCATDTLALGASKYLQEQRIDTLQLASVGNTPLMKFLHPEIVTVDPGYAEAGRQAACQLIAQVTGRSEPQQIIIPATLS,soluble
10,MQPELTKTPANFPLSPLGAVVILGDIPNPELLAIPLAPTPSTMFGPRGACLVAETGALWVSDTGHHRLLGWRKLPTTDSQPADWVIGQPDFYHEGQNAKGTPGRTTVSVPTGICVCGGGLAIADAWNHRVLIWHKIPEDSNVPADLVLGQRNFSENEPNRGKQSPDANTMHWPYGVAYHQGKLFVADTGNRRLLIWQQLPTENGQPADIVLGQPDMISRNENGGGSPTAGSMRWCHDIAFWDDNLVVTDAGNNRVMIWQGIPTENNAPCAVVLGQKSFDLVEMNQGVYFPSAGSLSMPYGVGATEDWLMVADTANSRLLGWRKRESILLLQGAIADGIIGQNSFQSKSENRHFGLPTRDSLNWCYGVKVCGSTAVISDSGNNRVLLWRFLLEHHHHHH,not soluble
11,MQPGYNGHGRGIYNFIGMTANRRSNLHNTVALDPDILTDTFQQCLFYQYAQCSILLMKEGATGFPFALYAPSTVSSYLYMR,not soluble
12,MQPTLGAQAGSMLFRDASGRYCASLAGYRFLSAFQPIFYKGGSLFGHEALLRVVDEGGEWRPPDRFLASLAPGMALEADRLARLIHVRNFAQSGQGGCLCLNLMPATVQEDQSGRTHLPLLNSMLQSVELDSGGVIFELPEFDVEHHGQPLLQGMRHAADMGFGLAVDDFGALPARRDKMGELCPDIIKIDRSLLLDYMAGQTQRLPALLEFGWQIGSRMLVEGIETAEQLEAMRALGVELYQGYYLGRPGELPVLRQL,not soluble
13,MQPYWAAIEADIERYLKKSITIRPPETVFGPMHHLTFAAPATAASTLCLAACELVGGDRSQAMAAAAAIHLVHAAAYVHEHLPLTDGSRPVSKPAIQHKYGPNVELLTGDGIVPFGFELLAGSVDPARTDDPDRILRVIIEISRAGGPEGMISGLHREEEIVDGNTSLDFIEYVCKKKYGEMHACGAACGAILGGAAEEEIQKLRNFGLYQGTLRGMMEMKNSHQLIDENIIGKLKELALEELGGFHGKNAELMSSLVAEPSLYAAHHHHHHHH,soluble
14,MQQLINSLFMEAFANPWLAEQEDQARLDLAQLVAEGDRLAFSTDSYVIDPLFFPGGNIGKLAICGTANDVAVSGAIPRYLSCGFILEEGLPMETLKAVVTSMAETARAAGIAIVTGDTKVVQRGAVDKLFINTAGMGAIPANIHWGAQTLTAGDVLLVSGTLGDHGATILNLREQLGLDGELVSDCAVLTPLIQTLRDIPGVKALRDATRGGVNAVVHEFAAACGCGIELSEAALPVKPAVRGVCELLGLDALNFANEGKLVIAVERNAAEQVLAALHSHPLGKDAALIGEVVERKGVRLAGLYGVKRTLDLPHAEPLPRIC,not soluble
15,MQRETVWLVEDEQGIADTLVYMLQQEGFAVEVFERGLPVLDKARKQVPDVMILDVGLPDISGFELCRQLLALHPALPVLFLTARSEEVDRLLGLEIGADDYVAKPFSPREVCARVRTLLRRVKKFSTPSPVIRIGHFELNEPAAQISWFDTPLALTRYEFLLLKTLLKSPGRVWSRQQLMDSVWEDAQDTYDRTVDTHIKTLRAKLRAINPDLSPINTHRGMGYSLRGL,soluble
16,MQRGIVWVVDDDSSIRWVLERALAGAGLTCTTFENGNEVLAALASKTPDVLLSDIRMPGMDGLALLKQIKQRHPMLPVIIMTAHSDLDAAVSAYQQGAFDYLPKPFDIDEAVALVERAISHYQE,soluble
17,MQRMAKMKAMEKHHGYKVLTMIHRREMISLFGLPAYQSIDEEDAEQVLRWIRKYRDYPLELILHTPGGQLHASIQIARALKNHPKKTRVLIPHYSMSGGTIIALAADEIVMDKDAVIGPIDPQVGDPIRGVFPAPSWIHAAETKKEDADDSTLVMSDISRKALRLTRNVAKELLEGKIQPDGKEDRLEEVVEKLVSGEMIHSTPLSAREAKELGLSVNTDFPEDVHDFMRLFRPVKKTVEYVG,not soluble
18,MQRTGELPAEHVPVILESSGAGDFHLIDSGNGLKLEQYGDYRVVRPEAQALWRPLVPDRVWQNADAIFTGDTDEDGMGRWRFPKEALGETWPLSLLGVEFLGRFTAFRHVGVFPEQIVHWEWLKNAVETADRPLKVLNLFGYTGVASLVAAAAGAEVTHVDASKKAIGWAKENQVLAGLEQAPIRWICEDAMKFIQREERRGSTYDIILTDPPKFGRGTHGEVWQLFDHLPLMLDICREILSPKALGLVLTAYSIRASFYSMHELMRETMRGAGGVVASGELVIREAGLDGKTPGRVLSTSLFSRWEPK,soluble
19,MQSRQRLLISVLAAGESRRFQGAKLAQSLATSTSEDRGQSLLQRHIACLANFIVSPNDRRESLGALDAELLVVIGAHQTLLRPQLEALGAVKLTLLDNPHWRTGLASSLGVAAAYAKVHQFDGMLLTLADQVALTLNDYRQLIETWQNCRKSVAAHYSSQIGELDELGAPAIFNASILDSLTDLTGDRGAKSILKQLAYVGELEAVALPNAAIDIDTKADLALWLALKELEHHHHHH,not soluble
20,MQTFFIAPTDFGVGLTSISLGLVRTLERAGLKVGFFKPIAQPHPGDLGPERSTELMARTHGLKPPKPLGLAHVERMLGDGQLDELLEEIINLYQQAAVGKDVLVVEGMVPTRSASYAARVNLHLAKSLDAEVILVSAPENEVLTELSGRVELQAQLFGGPKDPKVLGVILNKVRTEESMEVFAARLKEHSPLLRNGDFRLLGCIPYRAELNAPRTRDVAELLGAQ,not soluble
21,MQTKKAFLYVFNTMSDWEYGYLIAELNSGRYFKKDLAPLKVITVGANKEMITTMGGLRIKPDISLDECTLESKDLLILPGGTTWSEEIHQPILERIGQALKIGTIVAAICGATDALANMGYLDTRKHTSNNLEYTKMVCPNYKGEKFYELGPAVSDANLVTASGIAPLEFAMEVLKKIDVFTLDALHSWYNLNKTHKPEYFFQLMNSINK,not soluble
22,MQTNLLSRPTSAKSTSMSDKINHPQLCQWLESVAISRDKQAFTHLFQFFAPKILRIARGKFPNEAQANEVVQDTMSNVWRKAHLYNQDKGAATTWVYTVMRNVTFDMLRKIQGNKEDNLSDDIWPIAESMSIENEIFDDHLEHANLLSVIEELPQAQQDVVKGFYFREMSQEQLAVHLHLPLGTVKSRLRLALGKLKVQLGEKHD,not soluble
23,MQTSHSLPSAQLPLFQEAFWASNGAPLLDDVIDSPSSASIEEPAAFSELSLSGLPGHCLTLLAPILRELSEEQDARWLTLIAPPASLTHEWLRRAGLNRERILLLQAKDNAAALALSCEALRLGRSHTVVSWLEPLSRAARKQLSRAAQLGQAQSLNIRLG,soluble
24,MQTSIDPVFAGWDGSVAQARQLQQQLAQRVALRDEVSAAPALLAGFDVGFEDDGQTTRAAAVLLDAQTLLPLETHVARVPTSMPYVPGLLSFRELPALLRALALLARTPDLVFIDGQGIAHPRRFGIAAHFGVVTGLPSIGVAKQRLAGTFIEPGGERGDHSPILLAGAQIGWALRSKPRCNPLIVSPGHRVSMQGALDWTLRTLRAYRLPEPTRLADRLASRRGEIELQTQPTLLLEHHHHHH,not soluble
25,MQTVNNIISSVSTVESKAYRDAMSHYAGAVQIVTTAGAAGRRGLTLTAACSVSDNPPTILICLQKIHEENRIFIENGVFAINTLAGPHQQLADAFSGRIGLTQDERFELAAWEILATGAPVLKGALAAFDCRVVSVQDHSTHHVLFGEVVGLSSHAEEEALIYLNRRYHKLEL,soluble
